Data on one protein can be found in publication PMC3618186 (2013).

The data set concerns the molecule itself. Nature of the data set: sedimentation equilibrium AUC.

B1: p150Glued CC1 CC1 (protein)
chain: SKEEEGLRAQVRDLEEKLETLRLKRAEDKAKLKELEKHKIQLEQVQEWKSKMQEQQADLQRRLKEARKEAKEALEAKERYMEEMADTADAIEMATLDKEMAEERAESLQQEVEALKERVDELTTDLEILKAEIEEKGSDGAASSYQLKQLEEQNARLKDALVRMRDLSSSEKQEHVKLQKLMEKKNQELEVVRQQRERLQEELSQAESTIDELKEQVDAALGAEEMVEMLTDRNLNLEEKVRELRETVGDLEAMNEMNDELQENARETELELREQLDMAGARVREAQKRVEAAQETVADYQQTIKKYRQLTAHLQDVNRELTNQQEASVERQQQ
As to B1, the dissociation constant Kd was under 1 nM.
